Measurements reported in patent publication US8466258B2, “Polypeptides, cyclic polypeptides and pharmaceutical comprising thereof for non invasive specific imaging of fibrosis” (INSERM (Institut National de la Santé et de la Recherche …, priority 2008, dated 2013).
Bridge positions count the residues as written; N and C are the ends. Peptide text beside a SMILES is read from it. * marks the point of attachment. Biotin = O=C1N[C@H]2[C@H](CS[C@H]2CCCCC(=O)*)N1

Legend:
laminin = laminin (Mus musculus, UniProt P02468+P02469+P19137); test: SPR: laminin binding to collagelin
9O12.2 IgG = test: SPR: 9O12.2 IgG injected over immobilized biotin-collagelin; assay type: binding; conditions: 9O12.2 IgG 5 μg/ml, competitor 25 μg/ml
Procedure: A Biacore 2000 instrument (GE Healthcare Europe GmbH, Orsay, France) (Université Paris 7, Institut Jacques Monod, Paris, France) was used to characterize the binding properties of the synthesized peptides. Biotinylated peptides (˜20 RU) were covalently coupled to the surface of a SA-sensorchip.
Glycine-HCl (10 mM pH 2.5) was injected for 30 s at 20 μL·min-1 to regenerate the sensorchip between each sample. Sensorgrams were analyzed with the BIA evaluation version 3.1 software. Kinetic constants (kon, koff) were deduced from the analysis of association and dissociation rates at four different IgG concentrations ranging from 1.25 to 10 μg·mL^−1. The dissociation constant KD was calculated from KD=koff/kon. […] In some experiments, the peptide was reduced by DTT on the sensor chip before injection of the IgG. Competition experiments were performed by mixing the IgG with recombinant soluble GPVI (25 μg·mL^−1). Collagen binding to the peptide was analysed by injecting type I equine collagen (Collagen Horm, Nycomed. Germany) (200 μg·mL^−1 in EBS-EP buffer) onto the peptide-coated sensorchip.

[1] = system: type I equine fibrillar collagen (Horm); test: Solid phase assay on collagen-coated microtitration plates; assay type: binding; conditions: competitor mixed with collagelin, 50 and 20 μg/mL (3J24.2: 50 μg/mL)

Kd (laminin) [µM]	inhibition of 9O12.2 IgG binding to immobilized biotin-collagelin by competitor (9O12.2 IgG)	inhibition of biotin-collagelin binding to collagen by competitor [1]	Molecule
18.3	–	–	CSCC[C@@H]1NC(=O)[C@H](C(C)C)NC(=O)[C@H](CCCNC(=N)N)NC(=O)[C@@H]2CCCN2C(=O)CNC(=O)[C@@H](NC(=O)CNC(=O)[C@H](CO)NC(=O)CNC(=O)[C@H](CO)NC(=O)CCCC[C@@H]2SC[C@@H]3NC(=O)N[C@@H]32)CSSC[C@@H](C(N)=O)NC(=O)[C@@H]2CCCN2C(=O)CNC(=O)[C@H](CCC(=O)O)NC(=O)[C@H](CC(=O)O)NC(=O)[C@H](CC(=O)O)NC(=O)CNC(=O)[C@H](CC(C)C)NC(=O)[C@H](Cc2c[nH]cn2)NC(=O)[C@H](CC(C)C)NC(=O)CNC(=O)[C@H](Cc2c[nH]cn2)NC1=O [collagelin] (Biotin-SGSGCGPRVMHGLHLGDDEGPC-NH2; disulfide 5-22)
–	completely inhibited	completely inhibited	recombinant soluble GPVI: soluble recombinant GPVI-Fc fusion protein (protein, left off: a dimerising Fc or GST, soluble recombinant GPVI-Fc fusion protein) QSGPLPKPSLQALPSSLVPLEKPVTLRCQGPPGVDLYRLEKLSSSRYQDQAVLFIPAMKRSLAGRYRCSYQNGSLWSLPSDQLELVATGVFAKPSLSAQPGPAVSSGGDVTLQCQTRYGFDQFALYKEGDPAPYKNPERWYRASFPIITVTAAHSGTYRCYSFSSRDPYLWSAPSDPLELVVTGTSVTPSRLPTEPPSPVAEFSEATAELTVSFTNEVFTTETSRSITASPKESDSPAGPARQYYTKGN
